The source of these data is US20260275311, “CRISPR NUCLEASE POLYPEPTIDES AND GENE EDITING SYSTEMS COMPRISING SUCH” (ARBOR BIOTECHNOLOGIES, INC., published 2026).

Where a chain is given by its changes, count along the chain named.

For one data set, the target named is T1, Nuclease K.
T1 chain: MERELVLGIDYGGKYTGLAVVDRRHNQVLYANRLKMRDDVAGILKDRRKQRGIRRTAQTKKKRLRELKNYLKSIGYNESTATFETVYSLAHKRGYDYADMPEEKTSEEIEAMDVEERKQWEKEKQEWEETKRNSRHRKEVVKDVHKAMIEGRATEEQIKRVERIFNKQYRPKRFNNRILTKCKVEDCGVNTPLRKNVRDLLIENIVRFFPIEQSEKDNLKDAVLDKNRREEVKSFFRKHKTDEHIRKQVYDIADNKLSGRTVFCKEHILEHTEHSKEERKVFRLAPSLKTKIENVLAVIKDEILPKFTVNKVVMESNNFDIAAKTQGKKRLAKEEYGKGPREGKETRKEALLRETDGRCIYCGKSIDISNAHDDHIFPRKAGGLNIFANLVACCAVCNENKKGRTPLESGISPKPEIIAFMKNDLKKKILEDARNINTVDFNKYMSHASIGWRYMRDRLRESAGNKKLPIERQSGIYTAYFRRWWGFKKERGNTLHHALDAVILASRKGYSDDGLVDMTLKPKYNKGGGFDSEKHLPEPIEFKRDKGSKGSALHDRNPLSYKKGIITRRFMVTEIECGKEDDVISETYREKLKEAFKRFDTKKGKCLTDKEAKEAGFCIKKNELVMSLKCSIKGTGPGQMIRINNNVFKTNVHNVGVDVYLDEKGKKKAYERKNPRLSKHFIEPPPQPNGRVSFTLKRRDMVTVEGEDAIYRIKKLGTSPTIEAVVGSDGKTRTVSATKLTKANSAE
As to the kind of experiment: cell_activity; PAM NGG (AGG); HEK293T. To be noted: tags: N-terminal SV40 NLS, C-terminal nucleoplasmin NLS.

The target of data set [1] is T2, Nuclease K D582R/I53R/T734R (D582R,I53R,T734R).
T2 chain: T1 chain with I53R, D582R, T734R
Description: cell_activity; PAM NGG; HEK293T. To be noted: tags: N- and C-terminal NLS. The procedure:
(§1) This Example describes indel assessment on mammalian targets using nuclease variants of Nuclease K comprising two or more substitutions identified as increasing indel activity in Example 8. 71 combination Nuclease K variants were tested.
(§2) Each Nuclease K variant and RNA guide (see Table 19) was cloned as described in Example 8. HEK293T cells were further transfected, followed by NGS analysis, as described in Example 8. For each target, indel ratios, referring to the percentage of NGS reads comprising indels, were calculated for the reference Nuclease K (SEQ ID NO: 65) and for each Nuclease K variant. The indel ratios shown in Table 20 were calculated as the average of two bioreplicates, each of which contained two technical replicates.

The next data set concerns the target T3, Nuclease K D582R/G42R (D582R,G42R).
T3 chain: T1 chain with G42R, D582R
Description: cell_activity; PAM NGG; HEK293T. To be noted: tags: N- and C-terminal NLS. On the procedure: as §1, §2

In data set [2] the target is T4, Nuclease A I67R/D568R/E706R.
T4 chain: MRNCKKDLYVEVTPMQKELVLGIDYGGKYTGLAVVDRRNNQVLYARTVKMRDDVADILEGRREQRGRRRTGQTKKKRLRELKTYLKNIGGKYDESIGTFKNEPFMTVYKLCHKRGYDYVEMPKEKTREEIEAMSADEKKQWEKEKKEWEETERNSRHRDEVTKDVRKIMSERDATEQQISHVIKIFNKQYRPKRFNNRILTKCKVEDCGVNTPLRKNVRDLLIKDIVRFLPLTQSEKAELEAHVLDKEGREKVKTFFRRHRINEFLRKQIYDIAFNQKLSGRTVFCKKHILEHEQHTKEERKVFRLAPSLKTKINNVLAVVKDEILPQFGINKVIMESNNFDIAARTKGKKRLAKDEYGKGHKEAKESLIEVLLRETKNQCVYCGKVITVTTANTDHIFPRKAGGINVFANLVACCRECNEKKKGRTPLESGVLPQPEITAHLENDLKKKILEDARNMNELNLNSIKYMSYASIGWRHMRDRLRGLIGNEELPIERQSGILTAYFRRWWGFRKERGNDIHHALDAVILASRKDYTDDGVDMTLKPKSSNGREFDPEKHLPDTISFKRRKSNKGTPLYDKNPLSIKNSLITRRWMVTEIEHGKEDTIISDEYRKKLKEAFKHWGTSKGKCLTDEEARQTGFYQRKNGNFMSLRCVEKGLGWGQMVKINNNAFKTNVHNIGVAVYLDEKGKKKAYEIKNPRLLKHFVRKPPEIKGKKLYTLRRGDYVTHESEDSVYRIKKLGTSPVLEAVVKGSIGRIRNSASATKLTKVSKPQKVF
As to the kind of experiment: cell_activity; PAM NGG (GGG); HEK293T. To be noted: tags: N-terminal SV40 NLS, C-terminal XTEN linker + nucleoplasmin NLS. The procedure: (§3) Approximately 16 hours prior to transfection, 25,000 HEK293T cells in DMEM/10% FBS+Pen/Strep (D10 media) were plated into each well of a 96-well plate. On the day of transfection, the cells were 50-90% confluent. For each well to be transfected, a mixture of Lipofectamine 2000™ (ThermoFisher Scientific) and Opti-MEM™ (ThermoFisher Scientific) was prepared and incubated at room temperature for 5 minutes (Solution 1). After incubation, the Lipofectamine 2000™: Opti-MEM™ mixture was added to a separate mixture containing the CRISPR nuclease plasmid (NLS-tagged), RNA guide plasmid, and Opti-MEM™ (Solution 2). In the case of negative controls, the CRISPR nuclease plasmid was excluded. Solutions 1 and 2 were mixed by pipetting up and down, then incubated at room temperature for 25 minutes. Following incubation, the Solution 1 and 2 mixture was added dropwise to each well of a 96-well plate containing the cells. […]
(§4) Each Nuclease A variant and RNA guide (see Table 5) was cloned as described in Example 2. […] For each target, indel ratios, referring to the percentage of NGS reads comprising indels, were calculated for Nuclease A (SEQ ID NO: 1) and for each variant of Nuclease A. The indel ratios shown in Table 6 were calculated as the average of two bioreplicates, each of which contained two technical replicates.

A further data set deals with T5, Nuclease A.
T5 chain: T4 chain with R67I, R568D, R706E
Description: cell_activity; PAM NGG (GGG); HEK293T. To be noted: tags: N-terminal SV40 NLS, C-terminal XTEN linker + nucleoplasmin NLS. On the procedure: as §3, §4

B1: Nuclease K VEGFA-T6 guide ; VEGFA-T6 target (ssRNA ; dsDNA)
RNA: UUUGCCCAUACUGGGGACCAGUUACAGUUAAGGCUCUGAAAAGAGCCUUAAUUGUAAAACGCCUAUACAGUGAAGGGAUAUACGCUUGGGUUUGUCCAGCCUGAGCCUCUAUGCCAGAAAUGGCGCCUUCAUCGUGGGUUAGGACAUUUAAAUUUAAAAACUAUUCAGCACUGUUUGCUCUUGUCAGCUUGGUGGCAGA
DNA 1: TTTGCCCATACTGGGGACCA
DNA 2: TGGTCCCCAGTATGGGCAAA
With B1, the activity in the data set with Nuclease K is 0.009 indel ratio; in data set [1] it was 0.097 indel ratio; in the data set with Nuclease K D582R/G42R, 0.153 indel ratio.

B2: Nuclease A EMX1-T7 guide ; EMX1-T7 target (ssRNA ; dsDNA)
RNA: CUUUAGCAAGGGACUAUUCAGUUACAGUUAAGGCUCUUUGGAAACAAAGAAGCCUUAAUUGUAAAACGCCUAUAUGGUAAAGUGAUGUACGUUUGGGUAUAUAUCGCCAGCCUGAACCUCUACGCCAGAAAUGGCAGCUUUAUCAUGGGUUAGGACGAUAUUUAAAAAACUUUCUGCGGCUUGCUUACUUUAGUAAGCUUUGUGGCUGAGGCAGAAUUCCUU
DNA 1: CTTTAGCAAGGGACTATTCA
DNA 2: TGAATAGTCCCTTGCTAAAG
As for B2, the values for the activity (in data set [2]; in the data set with Nuclease A) were 0.337 indel ratio and 0.033 indel ratio, respectively.
